The numbers were not newly measured in publication PMC8836397, which cites them from elsewhere.

The target of data set [1] is Leu-enkephalin (Homo sapiens) (UniProt P01210).
Sequence of UniProt P01210 (P01210 whole entry, looked up): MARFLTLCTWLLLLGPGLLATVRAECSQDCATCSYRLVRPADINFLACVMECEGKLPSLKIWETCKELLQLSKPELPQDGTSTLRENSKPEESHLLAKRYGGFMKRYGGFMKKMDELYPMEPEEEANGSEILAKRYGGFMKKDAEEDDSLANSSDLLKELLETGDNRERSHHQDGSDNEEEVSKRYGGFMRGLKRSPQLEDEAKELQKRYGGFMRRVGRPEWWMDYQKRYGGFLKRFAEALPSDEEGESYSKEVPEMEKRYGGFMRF

Take DPP III (from UniProt Q9NY33): the inhibitory constant (Ki) in the data set with IVYPW (tynorphin analog) is 100 nM; in the data set with WVYPW (tynorphin analog), 126 nM. In the case of “DPP III (inactive variant) (from UniProt Q9NY33)”, the dissociation constant (Kd) in data set [1] is 3600 nM.
